Test results reported in patent publication US20220010017A1 (Bayer, published 2022).

Target: T1, human CEACAM6 (human, UniProt P40199 35-320)
T1 sequence (looked up): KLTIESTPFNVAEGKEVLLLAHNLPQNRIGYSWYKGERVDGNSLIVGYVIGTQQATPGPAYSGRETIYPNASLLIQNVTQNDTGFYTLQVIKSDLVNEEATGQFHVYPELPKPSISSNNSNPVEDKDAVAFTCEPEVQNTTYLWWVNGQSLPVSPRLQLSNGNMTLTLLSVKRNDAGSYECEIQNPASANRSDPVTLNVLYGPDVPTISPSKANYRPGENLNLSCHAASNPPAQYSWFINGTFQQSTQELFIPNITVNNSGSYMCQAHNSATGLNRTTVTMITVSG
Assay: cell-based or functional assay

B1: TPP-3310 (antibody, human IgG2, kappa, V domains shown)
VH: QVTLRESGPALVKPTQTLTLTCTFSGFSLSTYGIGVGWIRQPPGKALEWLAHIWWNDNKYYSTSLKTRLTISKDTSKNQVVLTMTNMDPVDTATYYCARISLPYFDYWGQGTTLTVSS
VL: DIQLTQSPSFLSASVGDRVTITCKASQNVGTAVAWYQQKPGKAPKLLIYSASNRYTGVPSRFSGSGSGTEFTLTISSLQPEDFATYYCQQYSSYPLTFGGGTKVEIKR
**Q.** Which “half-maximal effective concentration (EC50) on the activation of T cells in co-culture” value does the source give for B1 here?
**A.** Its value is about 1 µg/mL.
